Test results reported in paper PMC4372403, “Glycosylation of Phenolic Compounds by the Site-Mutated β-Galactosidase from Lactobacillus bulgaricus L3” (PLoS ONE, 2015).

Substrate: O=[N+]([O-])c1ccccc1O[C@@H]1O[C@H](CO)[C@H](O)[C@H](O)[C@H]1O
Assay: purified protein
Assay type: biochemical, Lactobacillus delbrueckii
Conditions: 37°C, 10 min, oNPGal 0.5 to 50 mM, hydrolysis

B1: BgaL3 (β-galactosidase from Lactobacillus bulgaricus L3) (Lactobacillus delbrueckii subsp. bulgaricus) (protein)
chain: MSNKLVKEKRVDQADLAWLTDPEVYEVNTIPPHSDHESFQSQEELEEGKSSLVQSLDGDWLIDYAENGQGPVNFYAEDFDDSNFKSVKVPGNLELQGFGQPQYVNVQYPWDGSEEIFPPQIPSKNPLASYVRYFDLDEAFWDKEVSLKFDGAATAIYVWLNGHFVGYGEDSFTPSEFMVTKFLKKENNRLAVALYKYSSASWLEDQDFWRMSGLFRSVTLQAKPRLHLEDLKLTASLTDNYQKGKLEVEANIAYRLPNASFKLEVRDSEGDLVAEKLGPIRSEQLEFTLADLPVAAWSAEKPNLYQVRLYLYQAGSLLEVSRQEVGFRNFELKDGIMYLNGQRIVFKGANRHEFDSKLGRAITEEDMIWDIKTMKRSNINAVRCSHYPNQSLFYRLCDKYGLYVIDEANLESHGTWEKVGGHEDPSFNVPGDDQHWLGASLSRVKNMMARDKNHASILIWSLGNESYAGTVFAQMADYVRKADPTRVQHYEGVTHNRKFDDATQIESRMYVPAKVIEEYLTNKPAKPFISVEYAHAMGNSVGDLAAYTALEKYPHYQGGFIWDWIDQGLEKDGHLLYGGDFDDRPTDYEFCGNGLVFADRTESPKLANVKALYANLKLEVKDGQLFLKNDNLFTNSSSYYFLTSLLVDGKLTYQSRPLTFGLEPGESGTFALPWPEVADEKGEVVYRVTAHLKEDLPWADEGFTVAEAEEVAQKLPEFKPEGRPDLVDSDYNLGLKGNNFQILFSKVKGWPVSLKYAGREYLKRLPEFTFWRALTDNDRGAGYGYDLARWENAGKYARLKDISCEVKEDSVLVKTAFTLPVALKGDLTVTYEVDGRGKIAVTADFPGAEEAGLLPAFGLNLALPKELTDYRYYGLGPNESYPDRLEGNYLGIYQGAVKKNFSPYLRPQETGNRSKVRWYQLFDEKGGLEFTANGADLNLSALPYSAAQIEAADHAFELTNNYTWVRALSAQMGVGGDDSWGQKVHPEFCLDAQKARQLRLVIQPLLLK
What does the source list for B1?
Km: 1.38 mM; Vmax: 6530 µmol/min/mg; kcat: 12500 s⁻¹; kcat/Km: 9.06e+06 M⁻¹ s⁻¹

B2: BgaL3 (β-galactosidase from Lactobacillus bulgaricus L3) (Lactobacillus delbrueckii subsp. bulgaricus; W980F) (protein)
chain: MSNKLVKEKRVDQADLAWLTDPEVYEVNTIPPHSDHESFQSQEELEEGKSSLVQSLDGDWLIDYAENGQGPVNFYAEDFDDSNFKSVKVPGNLELQGFGQPQYVNVQYPWDGSEEIFPPQIPSKNPLASYVRYFDLDEAFWDKEVSLKFDGAATAIYVWLNGHFVGYGEDSFTPSEFMVTKFLKKENNRLAVALYKYSSASWLEDQDFWRMSGLFRSVTLQAKPRLHLEDLKLTASLTDNYQKGKLEVEANIAYRLPNASFKLEVRDSEGDLVAEKLGPIRSEQLEFTLADLPVAAWSAEKPNLYQVRLYLYQAGSLLEVSRQEVGFRNFELKDGIMYLNGQRIVFKGANRHEFDSKLGRAITEEDMIWDIKTMKRSNINAVRCSHYPNQSLFYRLCDKYGLYVIDEANLESHGTWEKVGGHEDPSFNVPGDDQHWLGASLSRVKNMMARDKNHASILIWSLGNESYAGTVFAQMADYVRKADPTRVQHYEGVTHNRKFDDATQIESRMYVPAKVIEEYLTNKPAKPFISVEYAHAMGNSVGDLAAYTALEKYPHYQGGFIWDWIDQGLEKDGHLLYGGDFDDRPTDYEFCGNGLVFADRTESPKLANVKALYANLKLEVKDGQLFLKNDNLFTNSSSYYFLTSLLVDGKLTYQSRPLTFGLEPGESGTFALPWPEVADEKGEVVYRVTAHLKEDLPWADEGFTVAEAEEVAQKLPEFKPEGRPDLVDSDYNLGLKGNNFQILFSKVKGWPVSLKYAGREYLKRLPEFTFWRALTDNDRGAGYGYDLARWENAGKYARLKDISCEVKEDSVLVKTAFTLPVALKGDLTVTYEVDGRGKIAVTADFPGAEEAGLLPAFGLNLALPKELTDYRYYGLGPNESYPDRLEGNYLGIYQGAVKKNFSPYLRPQETGNRSKVRWYQLFDEKGGLEFTANGADLNLSALPYSAAQIEAADHAFELTNNYTWVRALSAQMGVGGDDSFGQKVHPEFCLDAQKARQLRLVIQPLLLK
How did the Km turn out when B2 was run?
Its Km is 6.40 mM.

And the Vmax?
The Vmax was 640 µmol/min/mg.

And the kcat?
Its kcat is 1240 s⁻¹.

What about the kcat/Km of the same protein?
The kcat/Km was 194000 M⁻¹ s⁻¹.
